# Reference: patent US20240018237A1 (SICHUAN KELUN BIOTECH BIOPHARMACEUTICAL, published 2024)
# Substitutions are numbered along the chain they refer to.
# B1: 3D8-Hu46 (antibody, human IgG1, kappa, V domains shown)
# VH: EVQLVESGGGLVQPGGSLRLSCAASGFTFSSYAMSWVRQAPGKGLEWVSSINSGGSTYYPDSVKGRFTISRDNSKNTLYLQMNSLRAEDTAVYYCARVNYYGYGDYAMDYWGQGTLVTVSS
# VL: DIQMTQSPSSLSASVGDRVTITCQASQDINSYLSWFQQKPGKSPKTLIYRANRLVTGVPSRFSGSGSGTDYTFTISSLQPEDIATYYCLQYDEFPYTFGGGTKLEIKR
# notes: humanized, human IgG1 / kappa
# B2: 38F8-Hu27 (antibody, human IgG1, kappa, V domains shown)
# VH: EVQLVESGGGLVQPGGSLRLSCAASGFTFSNYAMSWVRQAPGKGLEWVASISSGGPTYYPDSVKGRFTVSRDNSKNTLYLQMNSLRAEDTAVYYCARGYRYDVNWYFDVWGAGTMVTVSS
# VL: B1 VL with N30S, S31N, S34T, Y49H, T85I, L104V
# notes: humanized, human IgG1 / kappa
# B3: 38F8-Hu18 (antibody, human IgG1, kappa, V domains shown)
# VH: B2 VH with A23T, P60A, K75R, A112R, M115L
# VL: B1 VL with S34T, Y49H, T85I, L104V
# notes: humanized, human IgG1 / kappa
# B4: 38F8-Hu24 (antibody, human IgG1, kappa, V domains shown)
# VH: B2 VH
# VL: B1 VL with N30S, S31N, S34T, Y49H, Y71F, L104V
# notes: humanized, human IgG1 / kappa
# B5: 3D8-Hu87 (antibody, human IgG1, kappa, V domains shown)
# VH: B1 VH with G42E, G44R, N52S
# VL: B1 VL with N30S, S31N
# notes: humanized, human IgG1 / kappa
# B6: 3D8-Hu97 (antibody, human IgG1, kappa, V domains shown)
# VH: B1 VH with G42E, G44R, N52S, S53N
# VL: B1 VL with N30S, S31N
# notes: humanized, human IgG1 / kappa
# B7: 3D8-Hu96 (antibody, human IgG1, kappa, V domains shown)
# VH: B1 VH with G42E, G44R, N52S, S53N
# VL: B1 VL
# notes: humanized, human IgG1 / kappa
# B8: 3D8-Hu25 (antibody, human IgG1, kappa, V domains shown)
# VH: B1 VH with S49A, S74A, T77S
# VL: B1 VL with S43A, Y71F
# notes: humanized, human IgG1 / kappa
# B9: 3D8-Hu57 (antibody, human IgG1, kappa, V domains shown)
# VH: B1 VH with D72E, S74A, T77S, E88G
# VL: B1 VL with N30S, S31N
# notes: humanized, human IgG1 / kappa
# B10: 3D8-Hu85 (antibody, human IgG1, kappa, V domains shown)
# VH: B1 VH with G42E, G44R, N52S
# VL: B1 VL with S43A, Y71F
# notes: humanized, human IgG1 / kappa
# B11: 38F8-Hu38 (antibody, human IgG1, kappa, V domains shown)
# VH: B2 VH with E1Q, Q13K, P60A, V69I, S74A, T77S
# VL: B1 VL with S34T, Y49H, T85I, L104V
# notes: humanized, human IgG1 / kappa
# B12: 38F8-Hu14 (antibody, human IgG1, kappa, V domains shown)
# VH: B2 VH with A23T, P60A, K75R, A112R, M115L
# VL: B1 VL with N30S, S31N, S34T, Y49H, Y71F, L104V
# notes: humanized, human IgG1 / kappa
# B13: 3D8-Hu56 (antibody, human IgG1, kappa, V domains shown)
# VH: B1 VH with D72E, S74A, T77S, E88G
# VL: B1 VL
# notes: humanized, human IgG1 / kappa
# B14: 3D8-Hu55 (antibody, human IgG1, kappa, V domains shown)
# VH: B1 VH with D72E, S74A, T77S, E88G
# VL: B1 VL with S43A, Y71F
# notes: humanized, human IgG1 / kappa
# B15: 3D8-HuC44 (antibody, human IgG1, kappa, V domains shown)
# VH: B1 VH
# VL: B1 VL with N30S, S31N, S34T, Y49H, Y71F, L104V
# notes: humanized, human IgG1 / kappa
# B16: 3D8-Hu26 (antibody, human IgG1, kappa, V domains shown)
# VH: B1 VH with S49A, S74A, T77S
# VL: B1 VL
# notes: humanized, human IgG1 / kappa
# B17: 38F8-Hu54 (antibody, human IgG1, kappa, V domains shown)
# VH: B2 VH with G42E, G44R
# VL: B1 VL with N30S, S31N, S34T, Y49H, Y71F, L104V
# notes: humanized, human IgG1 / kappa
# B18: 38F8-Hu17 (antibody, human IgG1, kappa, V domains shown)
# VH: B2 VH with A23T, P60A, K75R, A112R, M115L
# VL: B1 VL with N30S, S31N, S34T, Y49H, T85I, L104V
# notes: humanized, human IgG1 / kappa
# B19: 3D8-HuC54 (antibody, human IgG1, kappa, V domains shown)
# VH: B1 VH with D72E, S74A, T77S, E88G
# VL: B1 VL with N30S, S31N, S34T, Y49H, Y71F, L104V
# notes: humanized, human IgG1 / kappa
# B20: 38F8-Hu28 (antibody, human IgG1, kappa, V domains shown)
# VH: B2 VH
# VL: B1 VL with S34T, Y49H, T85I, L104V
# notes: humanized, human IgG1 / kappa
# B21: 38F8-Hu16 (antibody, human IgG1, kappa, V domains shown)
# VH: B2 VH with A23T, P60A, K75R, A112R, M115L
# VL: B1 VL with S34T, Y49H, Y71F, L104V
# notes: humanized, human IgG1 / kappa
# B22: 3D8-HuC84 (antibody, human IgG1, kappa, V domains shown)
# VH: B1 VH with G42E, G44R, N52S
# VL: B1 VL with N30S, S31N, S34T, Y49H, Y71F, L104V
# notes: humanized, human IgG1 / kappa
# B23: 3D8-Hu86 (antibody, human IgG1, kappa, V domains shown)
# VH: B1 VH with G42E, G44R, N52S
# VL: B1 VL
# notes: humanized, human IgG1 / kappa
# B24: 3D8-Hu95 (antibody, human IgG1, kappa, V domains shown)
# VH: B1 VH with G42E, G44R, N52S, S53N
# VL: B1 VL with S43A, Y71F
# notes: humanized, human IgG1 / kappa
# B25: 38F8-Hu34 (antibody, human IgG1, kappa, V domains shown)
# VH: B2 VH with E1Q, Q13K, P60A, V69I, S74A, T77S
# VL: B1 VL with N30S, S31N, S34T, Y49H, Y71F, L104V
# notes: humanized, human IgG1 / kappa
# B26: 3D8-Hu45 (antibody, human IgG1, kappa, V domains shown)
# VH: B1 VH
# VL: B1 VL with S43A, Y71F
# notes: humanized, human IgG1 / kappa
# B27: 38F8-Hu36 (antibody, human IgG1, kappa, V domains shown)
# VH: B2 VH with E1Q, Q13K, P60A, V69I, S74A, T77S
# VL: B1 VL with S34T, Y49H, Y71F, L104V
# notes: humanized, human IgG1 / kappa
# B28: 3D8-Hu27 (antibody, human IgG1, kappa, V domains shown)
# VH: B1 VH with S49A, S74A, T77S
# VL: B1 VL with N30S, S31N
# notes: humanized, human IgG1 / kappa
# B29: 38F8-Hu26 (antibody, human IgG1, kappa, V domains shown)
# VH: B2 VH
# VL: B1 VL with S34T, Y49H, Y71F, L104V
# notes: humanized, human IgG1 / kappa
# B30: 3D8-Hu47 (antibody, human IgG1, kappa, V domains shown)
# VH: B1 VH
# VL: B1 VL with N30S, S31N
# notes: humanized, human IgG1 / kappa
# B31: 38F8-Hu37 (antibody, human IgG1, kappa, V domains shown)
# VH: B2 VH with E1Q, Q13K, P60A, V69I, S74A, T77S
# VL: B1 VL with N30S, S31N, S34T, Y49H, T85I, L104V
# notes: humanized, human IgG1 / kappa
# B32: 3D8-HuC94 (antibody, human IgG1, kappa, V domains shown)
# VH: B1 VH with G42E, G44R, N52S, S53N
# VL: B1 VL with N30S, S31N, S34T, Y49H, Y71F, L104V
# notes: humanized, human IgG1 / kappa
# Target: T1, human ROR1 (full-length, on the cell surface) (human, UniProt Q01973 30-937)
# T1 construct: whole, on cells; the tumour cell lines carry their own ROR1; also called Ba/F3-ROR1 cells; Jeko-1
# Assay: flow cytometry, A549 cells
# Protocol: (§1) The affinities of the anti-human ROR1 humanized antibodies to Ba/F3-ROR1, Jeko-1, HT-29 and A549 cells were detected by flow cytometry. The specific experimental steps were as follows: the BaBF3-ROR1, Jeko-1, HT-29 and A549 cells were incubated with the purified humanized antibodies of different concentration gradients on ice for 30 minutes, and the anti-ROR1 antibody UC961 with human IgG1 and the anti-TNP antibody were used as positive and negative controls, respectively.
# T1 sequence (Q01973 30-937): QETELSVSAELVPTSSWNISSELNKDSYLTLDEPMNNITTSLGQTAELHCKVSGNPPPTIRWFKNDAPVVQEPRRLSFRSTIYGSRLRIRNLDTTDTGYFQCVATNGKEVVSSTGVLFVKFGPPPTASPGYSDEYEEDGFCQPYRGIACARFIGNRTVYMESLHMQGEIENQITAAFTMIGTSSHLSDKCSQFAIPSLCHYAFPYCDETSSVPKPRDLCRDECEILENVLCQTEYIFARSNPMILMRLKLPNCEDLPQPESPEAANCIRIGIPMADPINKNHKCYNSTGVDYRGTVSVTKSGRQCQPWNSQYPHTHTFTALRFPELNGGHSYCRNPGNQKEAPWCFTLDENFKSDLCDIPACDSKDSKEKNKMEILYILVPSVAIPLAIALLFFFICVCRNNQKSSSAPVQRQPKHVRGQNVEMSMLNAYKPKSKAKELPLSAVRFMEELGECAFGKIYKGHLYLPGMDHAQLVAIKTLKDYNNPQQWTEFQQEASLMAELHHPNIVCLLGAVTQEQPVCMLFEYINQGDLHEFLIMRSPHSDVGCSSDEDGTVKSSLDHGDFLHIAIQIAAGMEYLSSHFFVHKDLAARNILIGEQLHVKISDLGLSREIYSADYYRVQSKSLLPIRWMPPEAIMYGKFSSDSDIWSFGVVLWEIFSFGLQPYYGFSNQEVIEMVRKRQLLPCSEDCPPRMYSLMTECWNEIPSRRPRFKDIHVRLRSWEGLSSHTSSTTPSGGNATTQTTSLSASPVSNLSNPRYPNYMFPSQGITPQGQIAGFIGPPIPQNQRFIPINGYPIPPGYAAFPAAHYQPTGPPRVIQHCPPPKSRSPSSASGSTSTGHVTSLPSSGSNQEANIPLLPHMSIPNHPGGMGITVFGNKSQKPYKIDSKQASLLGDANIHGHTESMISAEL
row,Binder,EC50 [nM]
1,B1,0.2
2,B2,0.27
3,B3,0.28
4,B4,0.21
5,B5,0.55
6,B6,0.58
7,B7,0.54
8,B8,0.22
9,B9,0.27
10,B10,0.45
11,B11,0.38
12,B12,0.34
13,B13,0.3
14,B14,0.23
15,B15,0.18
16,B16,0.2

row,Binder,EC50 [nM]
1,B17,0.46
2,B18,0.21
3,B19,0.23
4,B20,0.34
5,B21,0.22
6,B22,0.85
7,B23,0.28
8,B24,0.56
9,B25,0.19
10,B26,0.19
11,B27,0.3
12,B28,0.91
13,B29,0.29
14,B30,0.31
15,B31,0.31
16,B32,1.38

# Target: T1, human ROR1 (full-length, on the cell …)
# Assay: flow cytometry, HT-29 cells
# Protocol: as §1
row,Binder,EC50 [nM]
1,B1,0.35
2,B2,0.25
3,B3,0.35
4,B4,0.24
5,B5,0.27
6,B6,0.52
7,B7,0.3
8,B8,0.23
9,B9,0.28
10,B10,0.25
11,B11,0.59
12,B12,0.24
13,B13,0.29
14,B14,0.17
15,B15,0.16
16,B16,0.26

row,Binder,EC50 [nM]
1,B17,0.49
2,B18,0.29
3,B19,0.19
4,B20,0.24
5,B21,0.31
6,B22,1.3
7,B23,0.28
8,B24,0.36
9,B25,0.29
10,B26,0.2
11,B27,0.37
12,B28,0.27
13,B29,0.33
14,B30,0.29
15,B31,0.44
16,B32,0.74

# Target: T1, human ROR1 (full-length, on the cell …)
# Assay: flow cytometry, Jeko-1 cells
# Protocol: as §1
row,Binder,EC50 [nM]
1,B1,0.08
2,B2,0.07
3,B3,0.11
4,B4,0.05
5,B5,0.17
6,B6,0.43
7,B7,0.11
8,B8,0.07
9,B9,0.13
10,B10,0.11
11,B11,0.13
12,B12,0.08
13,B13,0.09
14,B14,0.04
15,B15,0.03
16,B16,0.08

row,Binder,EC50 [nM]
1,B17,0.09
2,B18,0.07
3,B19,0.03
4,B20,0.12
5,B21,0.08
6,B22,0.06
7,B23,0.05
8,B24,0.13
9,B25,0.06
10,B26,0.08
11,B27,0.09
12,B28,0.04
13,B29,0.09
14,B30,0.08
15,B31,0.1
16,B32,0.06

# Target: T1, human ROR1 (full-length, on the cell …)
# Assay: flow cytometry, Ba/F3-ROR1 cells
# Protocol: as §1
row,Binder,EC50 [nM]
1,B1,0.39
2,B2,0.99
3,B3,0.82
4,B4,0.98
5,B5,0.21
6,B6,0.3
7,B7,0.3
8,B8,0.29
9,B9,0.37
10,B10,0.25
11,B11,1.43
12,B12,0.84
13,B13,0.33
14,B14,0.33
15,B15,0.28
16,B16,0.29

row,Binder,EC50 [nM]
1,B17,1.57
2,B18,1.48
3,B19,0.23
4,B20,1.32
5,B21,0.94
6,B22,0.19
7,B23,0.3
8,B24,0.32
9,B25,1.23
10,B26,0.33
11,B27,1.16
12,B28,0.2
13,B29,0.77
14,B30,0.28
15,B31,2.35
16,B32,0.22
